These results are taken from patent US8809287B2, “Compositions and methods for altering Wnt autocrine signaling” (Icahn School of Medicine at Mount Sinai, priority 2004, dated 2014).

For assay [1], the system named is uncomplexed β-catenin. Nature of the assay: Uncomplexed β-catenin in MDAMB231 breast tumor cells. It counts as cell-based, human. The following applies: FRP1-HA retrovirus. As to the method:
(§1) β-catenin levels were assessed using the GST-E-cadherin binding assay, which has been previously described (Bafico et al., (1998) Oncogene 16:2819-2825). Briefly, bacterially expressed GST-E-cadherin was purified with glutathione-Sepharose beads and incubated with 1 mg of each cell lysate. The GST-E-cadherin/[…]-catenin complex bound to the beads was recovered by centrifugation and analyzed by SDS-PAGE followed by immunoblotting. The uncomplexed β-catenin was detected using a monoclonal antibody to β-catenin (Transduction Laboratories). Unphosphorylated β-catenin was detected with a monoclonal antibody specific for β-catenin dephosphorylated at residues 27-37 (Alexis, Läufelfingen, Switzerland). FRP1-HA and DKK1-HA were detected with an anti-HA monoclonal antibody (Hybridoma Center, Mount Sinai School of Medicine, New York).
(§2) Breast (MDAMB231, ATCC No. HTB-26) and ovarian A1847 tumor cell lines were infected with vector alone or FRP 1-HA (described in Example 1) retroviruses and marker selected. […] Breast (MDAMB231) and ovarian A1847 tumor cell lines were analyzed for uncomplexed β-catenin and FRP 1-HA by immunoblot analysis with either an anti-β-catenin antibody (Transduction Laboratories) or an anti-HA antibody (Hybridoma Center, Mount Sinai School of Medicine, New York). […]

For assay [2], the system named is TCF-dependent reporter activity. The assay can be described thus: TOP-Glow/FOP-Glow TCF reporter assay in HCT116 wild type β-catenin allele clone. It counts as cell-based, human. The method, then: TCF responsive elements operably linked to a reporter (TOP-Glow, wild type, or FOP-Glow, mutant) were analyzed for transcriptional activity in […]. HCT116 (ATCC No. CCL-247) cells containing the wild type β-catenin allele were plated at 3×10^5 per well in 6-well plates and co-transfected with 1 μg of either the TOP-glow or FOP-glow plasmids (Upstate Biotechnology) and 0.001 μg of the Renilla control plasmid (pRL-CMV) utilizing FuGene® (Roche) according to the manufacturer's instructions. After 48 hours cells were lysed and analyzed utilizing the Dual Luciferase Reporter Assay system (Promega).
(A reporter such as luciferase makes a cellular process visible.)

For another assay, the system named is HCT116 cell lines. The assay can be described thus: Tumorigenicity of HCT116 cell lines injected subcutaneously in nude mice. It counts as in vivo. As to the method:
To assess the effects of Wnt autocrine inhibition in vivo, tumorigenicity experiments were performed utilizing parental or β-catenin wild type allele containing HCT116 cell lines, in which stable marker selected mass cultures expressing FRP1 were obtained. Parental and wild type β-catenin allele containing HCT116 cells were transfected with either vector control or FRP1. Marker selected mass cultures of each were subcutaneously injected in 6 week old nude mice at 2.5×10^6 cells per site. Tumor growth was monitored at weekly intervals as previously described (Pierce et al. (1991) Oncogene 6:1189-1194). Values in FIG. 7F represent the mean (± standard deviation) of 4 inoculation cites per cell line. […] All of these findings establish that autocrine Wnt signaling can be present in human colon carcinoma cells that harbor downstream lesions within the canonical pathway.

Assay [3] has as its system uncomplexed β-catenin. The assay can be described thus: GST-E-cadherin binding assay / immunoblot of uncomplexed β-catenin, Wnt-3a expressing NIH3T3 cells. It counts as cell-based, mouse. The following applies: NIH3T3 cells stably expressing Wnt-3a; purified DKK1 (10 nM). As to the method: as §1, with “York). […]” for “York).”
On the technique in general: A western blot detects proteins with antibodies after separation by electrophoresis.

The subject of assay [4] is uncomplexed β-catenin. The assay can be described thus: GST-E-cadherin binding assay / immunoblot, NIH3T3 cells expressing β-catenin under Tet promoter. The conditions noted are these: β-catenin under tet regulatable promoter, purified DKK1 (10 nM). It counts as cell-based, mouse. The method, then: as §1, with “York). […]” for “York).”
Assay [5] concerns uncomplexed β-catenin. The assay can be described thus: Uncomplexed β-catenin in PAI ovarian tumor cells. It counts as cell-based, human. The following applies: DKK1-HA retrovirus. The method, then:
as §1, §2

B1: FRP1: human secreted Frizzled Related Protein 1, Wnt antagonist; expressed from pBabe-derived retrovirus with carboxy-terminal HA tag (protein, UniProt Q8N474 32-314, looked up)
Secreted frizzled-related …: SEYDYVSFQSDIGPYQSGRFYTKPPQCVDIPADLRLCHNVGYKKMVLPNLLEHETMAEVKQQASSWVPLLNKNCHAGTQVFLCSLFAPVCLDRPIYPCRWLCEAVRDSCEPVMQFFGFYWPEMLKCDKFPEGDVCIAMTPPNATEASKPQGTTVCPPCDNELKSEAIIEHLCASEFALRMKIKEVKKENGDKKIVPKKKKPLKLGPIKKKDLKKLVLYLKNGADCPCHQLDNLSHHFLIMGRKVKSQYLLTAIHKWDKKNKEFKNFMKKMKNHECPTFQSVFK
modifications: C-terminal HA tag
notes: human secreted Frizzled Related Protein 1, Wnt antagonist; expressed from pBabe-derived retrovirus with carboxy-terminal HA tag
Consider B1, for which the “constitutively up-regulated β-catenin” value in the assay on uncomplexed β-catenin [1] was “inhibition of constitutively up-regulated β-catenin”. Also, the TCF-dependent reporter activity entry in assay [2] was “able to inhibit”. In addition, the tumor growth result in the assay with HCT116 cell lines (parental HCT116 cells expressing FRP1, subcutaneous in nude mice) was “no effect”. The tumor forming ability entry with HCT116 cell lines (β-catenin wild type allele containing HCT116 cells expressing FRP1, subcutaneous in nude mice) is on record as “striking reduction”.

B2: DKK1: Dickkopf-1, secreted Wnt antagonist protein that binds Wnt co-receptor LRP6; used purified, in conditioned media or retrovirally expressed with HA tag (protein, UniProt O94907 32-266, looked up)
Dickkopf-related protein 1: TLNSVLNSNAIKNLPPPLGGAAGHPGSAVSAAPGILYPGGNKYQTIDNYQPYPCAEDEECGTDEYCASPTRGGDAGVQICLACRKRRKRCMRHAMCCPGNYCKNGICVSSDQNHFRGEIEETITESFGNDHSTLDGYSRRTTLSSKMYHTKGQEGSVCLRSSDCASGLCCARHFWSKICKPVLKEGQVCTKHRRKGSHGLEIFQRCYCGEGLSCRIQKDHHQASNSSRLHTCQRH
modifications: HA tag in some uses
For the molecule B2, the “up-regulated β-catenin levels” value in the assay on uncomplexed β-catenin [3] is “striking inhibition of up-regulated β-catenin levels”. The “uncomplexed β-catenin induced by exogenous β-catenin” value in the assay with uncomplexed β-catenin [4] is “no effect”. For the same molecule, in the assay on uncomplexed β-catenin [5], the “constitutively up-regulated β-catenin” value is “inhibition of constitutively up-regulated β-catenin”.
